Reference: patent US20110165066A1

Tests used:
[1] = target: human IL-13 wild type (human) (UniProt P35225); experiment: cell surface-based receptor binding assay, IL-13 binding to IL-13Rα2 on COS cells
[2] = target: human IL-13 wild type (human) (UniProt P35225); experiment: ELISA-based receptor binding assay, blocking biotin-IL-13 binding to IL-13Rα2/Fc
[3] = target: human IL-13 wild type (human) (UniProt P35225); experiment: ELISA-based receptor binding assay, IL-13 binding to IL-13Rα2/Fc
[4] = target: human IL-13 variant (R130Q) (human) (UniProt P35225); experiment: SPR (Biacore)
human IL-13 variant (R130Q) (human), sequence (P35225 35-146 limits assumed, stated change not applied): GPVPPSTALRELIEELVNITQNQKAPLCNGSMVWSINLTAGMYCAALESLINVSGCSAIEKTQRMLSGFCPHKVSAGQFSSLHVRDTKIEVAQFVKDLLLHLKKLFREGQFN

[5] = target: human IL-13 wild type (human) (UniProt P35225); experiment: SPR (Biacore)
[6] = target: human IL-13 wild type (human) (UniProt P35225); experiment: cell surface-based receptor binding assay, blocking 125I-IL-13 binding to IL-13Rα2-transfected COS cells

human IL-13 wild type (human), sequence (P35225 other isoform, or with tags, fused parts or gaps limits assumed): as the sequence (P35225 35-146 limits assumed, stated change not applied) above, with Q110R counted along it

B1: MJ2-7 (antibody, from another filing, V domains shown)
VH: EVQLQQSGAELVKPGASVKLSCTGSGFNIKDTYIHWVKQRPEQGLEWIGRIDPANDNIKYDPKFQGKATITADTSSNTAYLQLNSLTSEDTAVYYCARSEENWYDFFDYWGQGTTLTVSS
VL: DVLMTQTPLSLPVSLGDQASISCRSSQSIVHSNGNTYLEWYLQKPGQSPKLLIYKVSNRFSGVPDRFSGSGSGTDFTLKISRVEAEDLGVYYCFQGSHIPYTFGGGTKLEIK
Binder B1 has a % inhibition at 100 nM [1] of 70%, an IC50 [2] of 19 nM and a % inhibition at 100 nM [3] of 60%. For the same binder, the Kd [4] was 0.79 nM, the Kd [5] was 1.14 nM and the IC50 [6] was 17.6 nM.
